Test results reported in patent US20220211857A1, “POLYPEPTIDE DERIVATIVE AND PREPARATION METHOD THEREOF” (NINGBO KUNPENG BIOTECH CO., LTD., priority 2019, published 2022).
Where a SMILES comes first, the peptide text is derived from it. The star is where a group is joined. X6 = O=C(O)CCCCCCCCCCCCCCC(=O)NC(CCC(=O)NCCOCCOCC(=O)NCCOCCOCCn1cc(CCOC(=O)*)nn1)C(=O)O; X4 = O=C(O)CCCCCCCCCCCCCCC(=O)NC(CCC(=O)NCCOCCOCCn1cc(CCOC(=O)*)nn1)C(=O)O; X2 = O=C(O)CCCCCCCCCCCCCCC(=O)NC(CCC(=O)NCCn1cc(CCOC(=O)*)nn1)C(=O)O

Key:
[1] = general background statement; cited from earlier work
[2] = Pharmacokinetics studies of PTH-1 derivatives in rats (single subcutaneous injection, LC-MS/MS, NCA); format: in vivo; settings: rat, experiment of Example 10 repeated in the same way
Description: PTH-1 and L6-GFA16-PTH-1 were injected subcutaneously with a single administration of 8.6 μg/kg, respectively. Animals in each group were collected blood at 0 min, 5 min, 15 min, 30 min, 1 h, 2 h, and 4 h after administration. […] Exposure time of drugs in vivo was prolonged and exposure doses were increased.

[3] = subcutaneous administration or intramuscular injection, background statement; cited from earlier work

In the case of “GLP-1: glucose-dependent incretin polypeptide hormone; reference substance of Table 2”, the “biological half-life in vivo” value [1] is given as 20 minutes.

For `CC[C@H](C)[C@H](NC(=O)[C@H](CCC(=O)O)NC(=O)[C@H](CO)NC(=O)[C@@H](NC(=O)[C@@H](N)CO)C(C)C)C(=O)N[C@@H](CCC(N)=O)C(=O)N[C@@H](CC(C)C)C(=O)N[C@@H](CCSC)C(=O)N[C@@H](Cc1c[nH]cn1)C(=O)N[C@@H](CC(N)=O)C(=O)N[C@@H](CC(C)C)C(=O)NCC(=O)N[C@@H](CCCNC(=N)N)C(=O)N[C@@H](Cc1c[nH]cn1)C(=O)N[C@@H](CC(C)C)C(=O)N[C@@H](CC(N)=O)C(=O)N[C@@H](CO)C(=O)N[C@@H](CCSC)C(=O)N[C@@H](CCC(=O)O)C(=O)N[C@@H](CCCNC(=N)N)C(=O)N[C@H](C(=O)N[C@@H](CCC(=O)O)C(=O)N[C@@H](Cc1c[nH]c2ccccc12)C(=O)N[C@@H](CC(C)C)C(=O)N[C@@H](CCCNC(=N)N)C(=O)N[C@@H](CCCCNC(=O)OCCc1cn(CCOCCOCCNC(=O)CCC(NC(=O)CCCCCCCCCCCCCCC(=O)O)C(=O)O)nn1)C(=O)N[C@@H](CCCNC(=N)N)C(=O)N[C@@H](CC(C)C)C(=O)N[C@@H](CCC(N)=O)C(=O)N[C@@H](CC(=O)O)C(=O)N[C@H](C(=O)N[C@@H](Cc1c[nH]cn1)C(=O)N[C@@H](CC(N)=O)C(=O)N[C@@H](Cc1ccccc1)C(=O)O)C(C)C)C(C)C` (some centres unmarked) [L2-GFA16-PTH] (H-SVSEIQLMHNLGRHLNSMERVEWLRK(X4)RLQDVHNF-OH), the “half-lives (in words)” value [2] was “significantly prolonged”.

With `CC[C@H](C)[C@H](NC(=O)[C@H](CCC(=O)O)NC(=O)[C@H](CO)NC(=O)[C@@H](NC(=O)[C@@H](N)CO)C(C)C)C(=O)N[C@@H](CCC(N)=O)C(=O)N[C@@H](CC(C)C)C(=O)N[C@@H](CCSC)C(=O)N[C@@H](Cc1c[nH]cn1)C(=O)N[C@@H](CC(N)=O)C(=O)N[C@@H](CC(C)C)C(=O)NCC(=O)N[C@@H](CCCNC(=N)N)C(=O)N[C@@H](Cc1c[nH]cn1)C(=O)N[C@@H](CC(C)C)C(=O)N[C@@H](CC(N)=O)C(=O)N[C@@H](CO)C(=O)N[C@@H](CCSC)C(=O)N[C@@H](CCC(=O)O)C(=O)N[C@@H](CCCNC(=N)N)C(=O)N[C@H](C(=O)N[C@@H](CCC(=O)O)C(=O)N[C@@H](Cc1c[nH]c2ccccc12)C(=O)N[C@@H](CC(C)C)C(=O)N[C@@H](CCCNC(=N)N)C(=O)N[C@@H](CCCCNC(=O)OCCc1cn(CCNC(=O)CCC(NC(=O)CCCCCCCCCCCCCCC(=O)O)C(=O)O)nn1)C(=O)N[C@@H](CCCNC(=N)N)C(=O)N[C@@H](CC(C)C)C(=O)N[C@@H](CCC(N)=O)C(=O)N[C@@H](CC(=O)O)C(=O)N[C@H](C(=O)N[C@@H](Cc1c[nH]cn1)C(=O)N[C@@H](CC(N)=O)C(=O)N[C@@H](Cc1ccccc1)C(=O)O)C(C)C)C(C)C` (some centres unmarked) [L0-GFA16-PTH] (H-SVSEIQLMHNLGRHLNSMERVEWLRK(X2)RLQDVHNF-OH) the “half-lives (in words)” value [2] was “significantly prolonged”.

For “PTH: parathyroid hormone; PTH-1 is the reference substance of Table 3 (SVSEIQLMHNLGRHLNSMERVEWLRKRLQDVHNF; Amino Acid Sequence of PTH)”, the half-life [3] is listed as “about 12 hours”.

For `CC[C@H](C)[C@H](NC(=O)[C@H](CCC(=O)O)NC(=O)[C@H](CO)NC(=O)[C@@H](NC(=O)[C@@H](N)CO)C(C)C)C(=O)N[C@@H](CCC(N)=O)C(=O)N[C@@H](CC(C)C)C(=O)N[C@@H](CCSC)C(=O)N[C@@H](Cc1c[nH]cn1)C(=O)N[C@@H](CC(N)=O)C(=O)N[C@@H](CC(C)C)C(=O)NCC(=O)N[C@@H](CCCNC(=N)N)C(=O)N[C@@H](Cc1c[nH]cn1)C(=O)N[C@@H](CC(C)C)C(=O)N[C@@H](CC(N)=O)C(=O)N[C@@H](CO)C(=O)N[C@@H](CCSC)C(=O)N[C@@H](CCC(=O)O)C(=O)N[C@@H](CCCNC(=N)N)C(=O)N[C@H](C(=O)N[C@@H](CCC(=O)O)C(=O)N[C@@H](Cc1c[nH]c2ccccc12)C(=O)N[C@@H](CC(C)C)C(=O)N[C@@H](CCCNC(=N)N)C(=O)N[C@@H](CCCCNC(=O)OCCc1cn(CCOCCOCCNC(=O)COCCOCCNC(=O)CCC(NC(=O)CCCCCCCCCCCCCCC(=O)O)C(=O)O)nn1)C(=O)N[C@@H](CCCNC(=N)N)C(=O)N[C@@H](CC(C)C)C(=O)N[C@@H](CCC(N)=O)C(=O)N[C@@H](CC(=O)O)C(=O)N[C@H](C(=O)N[C@@H](Cc1c[nH]cn1)C(=O)N[C@@H](CC(N)=O)C(=O)N[C@@H](Cc1ccccc1)C(=O)O)C(C)C)C(C)C` (some centres unmarked) [L5-GFA16-PTH] (H-SVSEIQLMHNLGRHLNSMERVEWLRK(X6)RLQDVHNF-OH), the “half-lives (in words)” value [2] was “significantly prolonged”.
